Measured values reported in the supplement of paper PMC10567573.

B1: ETS1 (parent)
chain: YVRDRADLNKDKPVIPAAALAGYT

Variants of: B1
Assay: protein stability index of a GFP-peptide fusion (GPS, HEK-293T) (PSI 1-6); higher = more stable
Conditions: c terminus: a fixed tail appended
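Note: lentivirally expressed fusions sorted by FACS into six bins by GFP to DsRed ratio, PSI derived from sequencing read proportions per bin multiplied by bin number.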

Variant | protein stability index
YVRDRADLNKDKPVIRAAALAGYT | 3.04
YKRDRADLNKDKPVIPAAALAGYT | 3.61
YVFDRADLNKDKPVIPAAALAGYT | 2.33
YVRDRADLNKDKPVIPAAALAGYW | 4.5
EVRDRADLNKDKPVIPAAALAGYT | 4.38
YVVDRADLNKDKPVIPAAALAGYT | 1.55
YVRDRADLNKDKPVIPAPALAGYT | 3.01
YVRDRADLNKDKPVIPAAALAQYT | 2.12
YVRMRADLNKDKPVIPAAALAGYT | 3.45
YVRDRADLNKDKPQIPAAALAGYT | 1.4
YVRDRADLNKDKPVIPQAALAGYT | 1.87
YVRDRADLNKQKPVIPAAALAGYT | 2.78
YVRDRADLNYDKPVIPAAALAGYT | 1.97
YVRIRADLNKDKPVIPAAALAGYT | 2.05
YVRDRADLNKDKPVIPAAALAGYK | 2.81
YVRDRADLNKDKPVYPAAALAGYT | 1.95
YVRDRADLNKDKPVIPAAALGGYT | 1.63
YVRDRADLNKDKPVIPAAWLAGYT | 2.98
YVRDRAELNKDKPVIPAAALAGYT | 2.37
YVRDRAQLNKDKPVIPAAALAGYT | 2.77
YVRDRADLNKDKPFIPAAALAGYT | 2.99
YVRDRADLNKDKPVIPAAALAEYT | 1.77
YPRDRADLNKDKPVIPAAALAGYT | 3
YVRDRADLNKDKPCIPAAALAGYT | 2.54

Variant | protein stability index
YVRDRADLNIDKPVIPAAALAGYT | 2.23
YVRDRADLNKDKPVIPAAALAAYT | 2.8
YVRDRADLNKDKKVIPAAALAGYT | 2.4
YVRDRADLIKDKPVIPAAALAGYT | 2.58
YVRDRADLNKDMPVIPAAALAGYT | 1.9
YVRDRKDLNKDKPVIPAAALAGYT | 1.2
YVRDRQDLNKDKPVIPAAALAGYT | 2.35
YVRDRADMNKDKPVIPAAALAGYT | 2.9
MVRDRADLNKDKPVIPAAALAGYT | 3.85
YVRDRADGNKDKPVIPAAALAGYT | 2.12
YVRDRADNNKDKPVIPAAALAGYT | 2.53
YVRDRADLCKDKPVIPAAALAGYT | 2.48
YVRDRADLNKLKPVIPAAALAGYT | 4.14
YVRPRADLNKDKPVIPAAALAGYT | 2.24
YVRDRADLNKDKPVIPAADLAGYT | 2.07
YVRDRADLNKDKPVIPAAFLAGYT | 3.59
YVGDRADLNKDKPVIPAAALAGYT | 2.08
YVRDRADQNKDKPVIPAAALAGYT | 1.77
YVRDRADLNKDKPVIPAAALAGTT | 2.26
YVRDRADLNKDKPVIPAAALAGYG | 1.69
YVRDRADLHKDKPVIPAAALAGYT | 3.44
YVRDRADLNKDKPVRPAAALAGYT | 1.86
YVRDRADLAKDKPVIPAAALAGYT | 2.17
YVRFRADLNKDKPVIPAAALAGYT | 2.32

Variant | protein stability index
YVRDRAKLNKDKPVIPAAALAGYT | 2.99
YVRDRADLNKDKPVIPIAALAGYT | 2.52
YVRDRADLNKDKLVIPAAALAGYT | 2.82
YVYDRADLNKDKPVIPAAALAGYT | 2.54
YVRDRADLNKDKPVIHAAALAGYT | 2.1
YVRDRADLNKDKPVVPAAALAGYT | 1.56
YVRDRADPNKDKPVIPAAALAGYT | 1.87
YVRDRADLNKDKHVIPAAALAGYT | 2.36
YVRDRADLNKDKWVIPAAALAGYT | 2.13
YVRDRADLNKDKPVIPAAELAGYT | 1.91
YVADRADLNKDKPVIPAAALAGYT | 2.24
YVRDRADLNKDKMVIPAAALAGYT | 1.95
YVRDTADLNKDKPVIPAAALAGYT | 2.02
YVRDRADLNKDKPVIPAAATAGYT | 2.12
YVRDRADLNKDKGVIPAAALAGYT | 2.23
YVRDRADLNKDKPVIPAAALAGFT | 2.21
YVRDRADLNKDKPIIPAAALAGYT | 1.63
YVRDRADLNKDIPVIPAAALAGYT | 2.19
YVRDRADLNKDKPVICAAALAGYT | 2.57
YVRDRADLNNDKPVIPAAALAGYT | 2.08
LVRDRADLNKDKPVIPAAALAGYT | 3.79
YVRDRADLNKDAPVIPAAALAGYT | 2.39
YVRDRADLNKVKPVIPAAALAGYT | 3.03
YVRDRADLNGDKPVIPAAALAGYT | 2.97

Variant | protein stability index
YVRDRADLNKMKPVIPAAALAGYT | 2.31
YVRDRADLNKDKPVISAAALAGYT | 1.64
YVRDRADLNKDKPVIVAAALAGYT | 2.44
YVRHRADLNKDKPVIPAAALAGYT | 1.94
YVRDRADLNKDKPDIPAAALAGYT | 2.17
YVRDCADLNKDKPVIPAAALAGYT | 2.36
YVRDRMDLNKDKPVIPAAALAGYT | 3.35
YVRDRADLNKNKPVIPAAALAGYT | 2.91
YERDRADLNKDKPVIPAAALAGYT | 4.25
YVRDRADLNKDKPVIPAAALAYYT | 1.69
YVRQRADLNKDKPVIPAAALAGYT | 1.57
YMRDRADLNKDKPVIPAAALAGYT | 3.81
YVRDRADCNKDKPVIPAAALAGYT | 1.96
YVRDRADLNMDKPVIPAAALAGYT | 2.32
YVMDRADLNKDKPVIPAAALAGYT | 1.52
YVRDRADLNKDKPVIPAQALAGYT | 2.84
YVRDVADLNKDKPVIPAAALAGYT | 1.44
YVRDRADLNEDKPVIPAAALAGYT | 1.88
YVRDRADLNKDKPVIPKAALAGYT | 1.98
YVRDGADLNKDKPVIPAAALAGYT | 2.24
YVRDRADLNKDKPVIPAAALACYT | 2.39
YVRDRFDLNKDKPVIPAAALAGYT | 2.46
